Columns and labels:
Assay in all cases: cell-based or functional assay
[1] = target: HIV-1 Env pseudovirus 3301.v1.c24 (HIV-1)
[2] = target: HIV-1 Env pseudovirus 6480.v4.c25 (HIV-1)
[3] = target: HIV-1 Env pseudovirus 6545.v4.c1 (HIV-1)
[4] = target: HIV-1 Env pseudovirus 6952.v1.c20 (HIV-1)
[5] = target: HIV-1 Env pseudovirus 89-F1_2_25 (HIV-1)
[6] = target: HIV-1 Env pseudovirus BJOX028000.10.3 (HIV-1)
[7] = target: HIV-1 Env pseudovirus C1080.c03 (HIV-1)
[8] = target: HIV-1 Env pseudovirus C3347.c11 (HIV-1)
[9] = target: HIV-1 Env pseudovirus C4118.c09 (HIV-1)
[10] = target: HIV-1 Env pseudovirus CNE5 (HIV-1)
[11] = target: HIV-1 Env pseudovirus R3265.c06 (HIV-1)
[12] = target: HIV-1 Env pseudovirus T255-34 (HIV-1)
[13] = target: HIV-1 Env pseudovirus T278-50 (HIV-1)
[14] = target: HIV-1 Env pseudovirus X1254_c3 (HIV-1)

Row | Substance | IC50 (Titer in TZM.bl cells) [1] [µg/mL] | IC80 (Titer in TZM.bl cells) [1] [µg/mL] | IC50 (Titer in TZM.bl cells) [2] [µg/mL] | IC80 (Titer in TZM.bl cells) [2] [µg/mL] | IC50 (Titer in TZM.bl cells) [3] [µg/mL] | IC80 (Titer in TZM.bl cells) [3] [µg/mL] | IC50 (Titer in TZM.bl cells) [4] [µg/mL] | IC80 (Titer in TZM.bl cells) [4] [µg/mL] | IC50 (Titer in TZM.bl cells) [5] [µg/mL] | IC80 (Titer in TZM.bl cells) [5] [µg/mL] | IC50 (Titer in TZM.bl cells) [6] [µg/mL] | IC80 (Titer in TZM.bl cells) [6] [µg/mL] | IC50 (Titer in TZM.bl cells) [7] [µg/mL] | IC80 (Titer in TZM.bl cells) [7] [µg/mL] | IC50 (Titer in TZM.bl cells) [8] [µg/mL] | IC80 (Titer in TZM.bl cells) [8] [µg/mL] | IC50 (Titer in TZM.bl cells) [9] [µg/mL] | IC80 (Titer in TZM.bl cells) [9] [µg/mL] | IC50 (Titer in TZM.bl cells) [10] [µg/mL] | IC80 (Titer in TZM.bl cells) [10] [µg/mL] | also measured
1 | 3BNC117 (antibody) | 0.01 | 0.05 | 0.01 | 0.04 | > 50 | > 50 | 0.15 | 0.75 | > 50 | > 50 | 0.01 | 0.05 | 0.25 | 1.73 | 0.03 | 0.13 | 0.09 | 0.52 | 0.28 | 1.28 | IC50 (Titer in TZM.bl cells) [11]: 0.48 µg/mL; IC80 (Titer in TZM.bl cells) [11]: 13 µg/mL; IC50 (Titer in TZM.bl cells) [12]: 0.02 µg/mL; IC80 (Titer in TZM.bl cells) [12]: 0.14 µg/mL; IC50 (Titer in TZM.bl cells) [13]: > 15 µg/mL; IC80 (Titer in TZM.bl cells) [13]: > 15 µg/mL; IC50 (Titer in TZM.bl cells) [14]: 0.08 µg/mL; IC80 (Titer in TZM.bl cells) [14]: 0.27 µg/mL
2 | 8ANC195 (antibody) | > 50 | > 50 | 0.16 | 1.13 | 26.9 | > 50 | 1.38 | 7.22 | > 50 | > 50 | 0.45 | 2.83 | 0.17 | 1.12 | > 50 | > 50 | 0.2 | 0.71 | 2.12 | 9.67 | IC50 (Titer in TZM.bl cells) [11]: 50 µg/mL; IC80 (Titer in TZM.bl cells) [11]: > 50 µg/mL; IC50 (Titer in TZM.bl cells) [12]: 0.54 µg/mL; IC80 (Titer in TZM.bl cells) [12]: 8.09 µg/mL; IC50 (Titer in TZM.bl cells) [13]: > 50 µg/mL; IC80 (Titer in TZM.bl cells) [13]: > 50 µg/mL; IC50 (Titer in TZM.bl cells) [14]: 6.95 µg/mL; IC80 (Titer in TZM.bl cells) [14]: 6.95 µg/mL
3 | VRC07 (antibody) | 0.027 | 0.073 | 0.032 | 0.134 | > 50 | > 50 | 0.064 | 0.181 | > 50 | > 50 | 0.011 | 0.069 | 2.03 | 8.25 | 0.06 | 0.38 | 0.121 | 0.444 | 0.138 | 0.524 | IC50 (Titer in TZM.bl cells) [12]: 0.227 µg/mL; IC80 (Titer in TZM.bl cells) [12]: 0.987 µg/mL; IC50 (Titer in TZM.bl cells) [13]: > 50 µg/mL; IC80 (Titer in TZM.bl cells) [13]: > 50 µg/mL; IC50 (Titer in TZM.bl cells) [14]: 0.041 µg/mL; IC80 (Titer in TZM.bl cells) [14]: 0.2 µg/mL

— patent US20240117018A1
